The target in assay [1] is T1, Xrs2 (Flag-tagged, recombinant) (S. cerevisiae, UniProt P33301 1-854).
T1 sequence (looked up): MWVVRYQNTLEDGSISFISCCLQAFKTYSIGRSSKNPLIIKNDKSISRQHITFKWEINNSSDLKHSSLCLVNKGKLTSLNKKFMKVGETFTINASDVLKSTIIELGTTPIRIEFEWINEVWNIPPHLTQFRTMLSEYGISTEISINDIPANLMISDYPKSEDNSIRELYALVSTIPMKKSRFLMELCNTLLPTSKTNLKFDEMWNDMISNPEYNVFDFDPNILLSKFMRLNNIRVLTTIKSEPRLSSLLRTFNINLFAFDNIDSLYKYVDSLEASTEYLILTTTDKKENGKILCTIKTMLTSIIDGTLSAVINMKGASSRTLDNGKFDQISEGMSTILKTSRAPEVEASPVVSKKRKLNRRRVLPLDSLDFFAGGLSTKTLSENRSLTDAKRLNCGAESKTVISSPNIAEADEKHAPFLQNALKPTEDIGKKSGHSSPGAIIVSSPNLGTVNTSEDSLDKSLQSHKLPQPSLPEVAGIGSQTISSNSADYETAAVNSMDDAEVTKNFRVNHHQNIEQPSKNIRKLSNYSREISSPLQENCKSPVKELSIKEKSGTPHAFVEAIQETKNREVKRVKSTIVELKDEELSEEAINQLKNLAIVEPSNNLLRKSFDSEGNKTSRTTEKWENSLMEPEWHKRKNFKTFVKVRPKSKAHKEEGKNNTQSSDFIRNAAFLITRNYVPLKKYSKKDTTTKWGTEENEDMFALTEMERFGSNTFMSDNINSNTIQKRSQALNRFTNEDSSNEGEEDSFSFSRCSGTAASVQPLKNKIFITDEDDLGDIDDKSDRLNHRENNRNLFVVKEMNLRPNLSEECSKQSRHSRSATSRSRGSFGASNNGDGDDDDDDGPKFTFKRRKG
Nature of the assay: pull-down.

The next assay deals with T2, Rad50 (S. cerevisiae, UniProt P12753 1-1312).
T2 sequence (looked up): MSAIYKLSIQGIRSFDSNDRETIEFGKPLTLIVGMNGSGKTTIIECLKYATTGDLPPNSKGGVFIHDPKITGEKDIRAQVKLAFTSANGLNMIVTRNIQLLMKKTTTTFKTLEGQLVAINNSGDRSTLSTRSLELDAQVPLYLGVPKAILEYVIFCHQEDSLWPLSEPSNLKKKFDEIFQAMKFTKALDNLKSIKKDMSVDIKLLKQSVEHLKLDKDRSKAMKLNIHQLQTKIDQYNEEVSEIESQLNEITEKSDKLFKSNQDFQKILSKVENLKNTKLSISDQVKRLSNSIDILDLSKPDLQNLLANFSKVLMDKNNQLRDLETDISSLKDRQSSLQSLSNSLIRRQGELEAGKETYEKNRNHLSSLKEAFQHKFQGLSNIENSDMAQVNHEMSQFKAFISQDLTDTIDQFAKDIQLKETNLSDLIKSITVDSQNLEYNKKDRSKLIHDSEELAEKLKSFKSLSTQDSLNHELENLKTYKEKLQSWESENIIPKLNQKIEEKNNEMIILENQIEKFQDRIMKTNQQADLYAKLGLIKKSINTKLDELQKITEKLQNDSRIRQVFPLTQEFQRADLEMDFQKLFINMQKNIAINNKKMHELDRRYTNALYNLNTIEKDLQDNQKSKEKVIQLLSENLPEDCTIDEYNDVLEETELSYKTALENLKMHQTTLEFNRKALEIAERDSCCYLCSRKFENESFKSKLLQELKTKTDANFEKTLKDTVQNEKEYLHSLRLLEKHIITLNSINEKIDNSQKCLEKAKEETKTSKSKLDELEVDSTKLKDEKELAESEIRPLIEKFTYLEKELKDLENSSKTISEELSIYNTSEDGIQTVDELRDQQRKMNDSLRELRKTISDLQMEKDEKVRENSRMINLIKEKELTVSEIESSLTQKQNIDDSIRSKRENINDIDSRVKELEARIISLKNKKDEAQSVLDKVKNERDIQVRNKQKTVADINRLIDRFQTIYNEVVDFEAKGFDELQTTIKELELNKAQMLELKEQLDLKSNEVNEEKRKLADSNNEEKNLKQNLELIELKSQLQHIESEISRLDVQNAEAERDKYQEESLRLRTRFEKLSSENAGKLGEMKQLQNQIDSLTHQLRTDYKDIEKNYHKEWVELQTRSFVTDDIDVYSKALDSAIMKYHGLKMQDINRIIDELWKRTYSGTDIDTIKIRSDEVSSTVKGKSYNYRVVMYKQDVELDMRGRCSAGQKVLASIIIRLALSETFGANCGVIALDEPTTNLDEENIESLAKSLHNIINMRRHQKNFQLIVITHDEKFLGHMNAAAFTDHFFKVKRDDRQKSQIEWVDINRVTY
Nature of the assay: pull-down.

B1: His-tagged Mre11 (wild type) (natural protein, S. cerevisiae, UniProt P32829 1-692, looked up)
chain: MDYPDPDTIRILITTDNHVGYNENDPITGDDSWKTFHEVMMLAKNNNVDMVVQSGDLFHVNKPSKKSLYQVLKTLRLCCMGDKPCELELLSDPSQVFHYDEFTNVNYEDPNFNISIPVFGISGNHDDASGDSLLCPMDILHATGLINHFGKVIESDKIKVVPLLFQKGSTKLALYGLAAVRDERLFRTFKDGGVTFEVPTMREGEWFNLMCVHQNHTGHTNTAFLPEQFLPDFLDMVIWGHEHECIPNLVHNPIKNFDVLQPGSSVATSLCEAEAQPKYVFILDIKYGEAPKMTPIPLETIRTFKMKSISLQDVPHLRPHDKDATSKYLIEQVEEMIRDANEETKQKLADDGEGDMVAELPKPLIRLRVDYSAPSNTQSPIDYQVENPRRFSNRFVGRVANGNNVVQFYKKRSPVTRSKKSGINGTSISDRDVEKLFSESGGELEVQTLVNDLLNKMQLSLLPEVGLNEAVKKFVDKDEKTALKEFISHEISNEVGILSTNEEFLRTDDAEEMKALIKQVKRANSVRPTPPKENDETNFAFNGNGLDSFRSSNREVRTGSPDITQSHVDNESRITHISQAESSKPTSKPKRVRTATKKKIPAFSDSTVISDAENELGDNNDAQDDVDIDENDIIMVSTDEEDASYGLLNGRKTKTKTRPAASTKTASRRGKGRASRTPKTDILGSLLAKKRK
With B1, in assay [1], the binding result is “binds”.

B2: His-tagged Mre11-R522H (natural protein, S. cerevisiae, UniProt P32829 1-692, looked up)
chain: MDYPDPDTIRILITTDNHVGYNENDPITGDDSWKTFHEVMMLAKNNNVDMVVQSGDLFHVNKPSKKSLYQVLKTLRLCCMGDKPCELELLSDPSQVFHYDEFTNVNYEDPNFNISIPVFGISGNHDDASGDSLLCPMDILHATGLINHFGKVIESDKIKVVPLLFQKGSTKLALYGLAAVRDERLFRTFKDGGVTFEVPTMREGEWFNLMCVHQNHTGHTNTAFLPEQFLPDFLDMVIWGHEHECIPNLVHNPIKNFDVLQPGSSVATSLCEAEAQPKYVFILDIKYGEAPKMTPIPLETIRTFKMKSISLQDVPHLRPHDKDATSKYLIEQVEEMIRDANEETKQKLADDGEGDMVAELPKPLIRLRVDYSAPSNTQSPIDYQVENPRRFSNRFVGRVANGNNVVQFYKKRSPVTRSKKSGINGTSISDRDVEKLFSESGGELEVQTLVNDLLNKMQLSLLPEVGLNEAVKKFVDKDEKTALKEFISHEISNEVGILSTNEEFLRTDDAEEMKALIKQVKHANSVRPTPPKENDETNFAFNGNGLDSFRSSNREVRTGSPDITQSHVDNESRITHISQAESSKPTSKPKRVRTATKKKIPAFSDSTVISDAENELGDNNDAQDDVDIDENDIIMVSTDEEDASYGLLNGRKTKTKTRPAASTKTASRRGKGRASRTPKTDILGSLLAKKRK
In the case of B2, the binding result (with Rad50; in assay [1]) was “binds” throughout.

The values are drawn from paper PMC5888019 (Nucleic Acids Research, 2018).
